{"source": "paper PMC4643373", "binders": {"B1": {"name": "NR2B 2AP mRNA (structured_RNA)", "RNA": "GGGUACGGGAGGGUAAGGCUGUGGGUCGCGUG", "modifications": "2-aminopurine replacing A5"}}, "biological_target": "FMRP isoform 1 (FMRP ISO1) (human (title of cited purification …, UniProt Q06787 1-632))", "assay": "fluorescence spectroscopy"}
{"binder": "B1", "values": [{"measurement": "Kd", "result": 0.37, "unit": "µM"}]}
